Reference: article PMC11894533, “A virulent milRNA of Fusarium oxysporum f. sp. cubense impairs plant resistance by targeting banana AP2 transcription factor coding gene MaPTI6L”

Biological target: MaPTI6L (Musa acuminata (Cavendish group cv. …, UniProt A0A804I776 1-300))
Assay: EMSA; EMSA Kit (Beyotime) protocol; buffer, salt, pH and temperature not stated
Settings: protein: recombinant; tags: MBP; label: FAM

MaPTI6L (Musa acuminata, sequence (A0A804I776 entry or part of it): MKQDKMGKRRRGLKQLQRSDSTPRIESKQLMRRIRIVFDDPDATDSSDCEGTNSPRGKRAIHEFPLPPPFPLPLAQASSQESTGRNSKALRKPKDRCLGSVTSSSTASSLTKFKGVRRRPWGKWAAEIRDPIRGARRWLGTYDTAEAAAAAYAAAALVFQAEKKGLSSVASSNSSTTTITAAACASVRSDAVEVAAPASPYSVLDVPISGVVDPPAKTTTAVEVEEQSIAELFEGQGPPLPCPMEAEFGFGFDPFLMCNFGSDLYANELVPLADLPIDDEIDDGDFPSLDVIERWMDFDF

B1: MaEDS1 promoter GCC-box mutant probe (dsDNA)
DNA 1: CCAACTCCTCCTCTCTCTGGACAAAAAACACAAACTCGTCTTGAAAACTCCGCGACAAA
DNA 2: TTTGTCGCGGAGTTTTCAAGACGAGTTTGTGTTTTTTGTCCAGAGAGAGGAGGAGTTGG
B1: no binding.
